Tested on: CD4+ T-cells and dendritic cells
Test: I-MUNE assay: CD4+ T-cell proliferation to 15-mer peptide sets presented by dendritic cells
Format: cell-based, human
Set-up: Structure Value: scale not given here
Settings: for Responses per peptide: positive response SI of 2.95 or greater, community donors; for Response/Peptide: SI>2.95; for background response: average percent responders per peptide, +/− sd where given; for Prominent responses noted at amino acids: peptide regions of the protein
Experimental: All peptides were obtained from a commercial source (Mimotopes, San Diego, C-A). For the I-MUNE® assay system described herein, 15-mer peptides offset by 3 amino acids that described the entire sequence of the proteins of interest were synthesized in a multipin format (See, Maeji et al., J. Immunol. Meth., 134:23-33 [1990]). Peptides were resuspended in DMSO at approximately 1 to 2 mg/ml, and stored at −70° C. prior to use. Each peptide was tested at least in duplicate, although for small peptide sets (e.g., Ber e 1), the peptides were routinely tested in triplicate.
Volunteer donor human blood buffy coat samples were obtained from two commercial sources (Stanford Blood Center, Palo Alto, Calif., and the Sacramento Medical Foundation, Sacramento, Calif.). Buffy coat samples were further purified by density separation. Each sample was HLA typed for HLA-DR and HLA-DQ using a commercial PCR-based kit (Bio-Synthesis).
Monocytes were purified by adherence to plastic in AIM V medium (Gibco/Life Technologies). Adherent cells were cultured in AIM V media containing 500 units/ml of recombinant human IL-4 (Endogen) and 800 units/ml recombinant human GM-CSF (Endogen) for 5 days. On day 5, recombinant human IL-1α (Endogen) and recombinant human TNF-α (Endogen) were added to 50 units/ml and 0.2 units/ml, respectively. On day 7, the fully matured dendritic cells were treated with 50 μg/ml mitomycin C (Sigma) for 1 hour at 37° C. Treated dendritic cells were dislodged with 50 mM EDTA in PBS, washed in AIM V medium, counted, and resuspended in AIM V media at 2×10^5 cells/ml.
CD4^+ T-cells were purified by negative selection from frozen aliquots of human peripheral blood mononuclear cells (PBMC) using Cellect CD4 columns (Cedarlane). […] CD4^+ T-cells were resuspended in AIM V media at 2×10^6 cells per ml.
CD4^+ T-cells and dendritic cells were plated in round-bottomed 96 well format plates at 100 μl of each cell mix per well. Peptide was added to a final concentration of approximately 5 ug/ml in 0.25-0.5% DMSO. Control wells contained 0.5% DMSO without added peptide. Each peptide was tested in duplicate. Cultures were incubated at 37° C., in 5% CO2 for 5 days. On day 5, 0.5 uCi of tritiated thymidine (NEN DuPont) was added to each well. On day 6, the cultures were harvested onto glass fiber mats using a TomTec manual harvester (TomTec), then processed for scintillation counting. Proliferation was assessed by determining the average counts per minute (CPM) value for each set of duplicate wells (TriLux Beta). This method is also described in U.S. Pat. No. 6,218,165 and Stickler et al., J. Immunother. 23: 654-660 (2000), both of which are herein incorporated by reference.
For each individual buffy coat sample, the average CPM values obtained in the I-MUNE® assay for all of the peptides were analyzed. The average CPM values for each peptide were divided by the average CPM value for the control (DMSO only) wells to determine the “stimulation index” (SI). Donors were tested with each peptide set until an average of at least two responses per peptide were compiled. The data for each protein was graphed showing the percent responders to each peptide within the set. A positive response was collated if the SI value was equal to or greater than 2.95. This value was chosen as it approximates a difference of three standard deviations in a normal population distribution. For each protein assessed, positive responses to individual peptides by individual donors were compiled. To determine the background response for a given protein, the percent responders for each peptide in the set were averaged and a standard deviation was calculated. SI values for each donor were compiled for each peptide set, and the percent of responders reported.

[1] = Table 1, from compiled responses
[2] = Table 3, Stanford and Sacramento donors

B1: ALCALASE ®: ALCALASE® enzyme, commercially available from Novo, Swissprot accession number P00780 (protein, UniProt P00780 106-379, looked up)
Subtilisin Carlsberg: AQTVPYGIPLIKADKVQAQGFKGANVKVAVLDTGIQASHPDLNVVGGASFVAGEAYNTDGNGHGTHVAGTVAALDNTTGVLGVAPSVSLYAVKVLNSSGSGSYSGIVSGIEWATTNGMDVINMSLGGASGSTAMKQAVDNAYAKGVVVVAAAGNSGSSGNTNTIGYPAKYDSVIAVGAVDSNSNRASFSSVGAELEVMAPGAGVYSTYPTNTYATLNGTSMASPHVAGAAALILSKHPNLSASQVRNRLSSTATYLGSSFYYGKGLINVEAAAQ
Number of epitope regions (Table 1): 1
Structure Value [1]: 0.72
Responses per peptide (Table 1): 2.16
Background % (Table 3): 2.35%
Response/Peptide (Table 3): 2.16
Structure Value [2]: 0.72
background response: 2.35%
Structure Value (compiled responses): 0.72
Prominent responses noted at amino acids: 19-33

B2: B. lentus subtilisin: Bacillus lentus subtilisin, industrial protease, Swissprot accession number P29600 (protein, UniProt P29600 1-269, looked up)
Subtilisin Savinase: AQSVPWGISRVQAPAAHNRGLTGSGVKVAVLDTGISTHPDLNIRGGASFVPGEPSTQDGNGHGTHVAGTIAALNNSIGVLGVAPSAELYAVKVLGASGSGSVSSIAQGLEWAGNNGMHVANLSLGSPSPSATLEQAVNSATSRGVLVVAASGNSGAGSISYPARYANAMAVGATDQNNNRASFSQYGAGLDIVAPGVNVQSTYPGSTYASLNGTSMATPHVAGAAALVKQKNPSWSNVQIRNHLKNTATSLGSTNLYGSGLVNAEAATR
Number of epitope regions (Table 1): 1
Structure Value [1]: 0.64
Responses per peptide (Table 1): 2.24
Background % (Table 3): 3.45%
Response/Peptide (Table 3): 2.24
Structure Value [2]: 0.65
background response: 3.45+/−2.90%
Structure Value (compiled responses): 0.64
Prominent responses noted at amino acids: 160-174

B3: sTNFR1: soluble tumor necrosis factor receptor 1 (protein, UniProt P19438 30-211, looked up)
extracellular domain: LVPHLGDREKRDSVCPQGKYIHPQNNSICCTKCHKGTYLYNDCPGPGQDTDCRECESGSFTASENHLRHCLSCSKCRKEMGQVEISSCTVDRDTVCGCRKNQYRHYWSENLFQCFNCSLCLNGTVHLSCQEKQNTVCTCHAGFFLRENECVSCSNCKKSLECTKLCLPQIENVKGTEDSGTT
modifications: extracellular domain
Background % (Table 3): 4.2%
Response/Peptide (Table 3): 2.9
Structure Value [2]: 0.47
Background +/− sd (Table 5, background response value): 2.23 +/− 1.95
Responses/peptide found (Table 5, determined experimentally): 1.54

B4: Amylase: Bacillus licheniformis alpha amylase, industrial enzyme, Swissprot accession number P06278 (protein, UniProt P06278 30-512, looked up)
Alpha-amylase: ANLNGTLMQYFEWYMPNDGQHWKRLQNDSAYLAEHGITAVWIPPAYKGTSQADVGYGAYDLYDLGEFHQKGTVRTKYGTKGELQSAIKSLHSRDINVYGDVVINHKGGADATEDVTAVEVDPADRNRVISGEHRIKAWTHFHFPGRGSTYSDFKWHWYHFDGTDWDESRKLNRIYKFQGKAWDWEVSNENGNYDYLMYADIDYDHPDVAAEIKRWGTWYANELQLDGFRLDAVKHIKFSFLRDWVNHVREKTGKEMFTVAEYWQNDLGALENYLNKTNFNHSVFDVPLHYQFHAASTQGGGYDMRKLLNSTVVSKHPLKAVTFVDNHDTQPGQSLESTVQTWFKPLAYAFILTRESGYPQVFYGDMYGTKGDSQREIPALKHKIEPILKARKQYAYGAQHDYFDHHDIVGWTREGDSSVANSGLAALITDGPGGAKRMYVGRQNAGETWHDITGNRSEPVVINSEGWGEFHVNGGSVSIYVQR
Number of epitope regions (Table 1): 3
Structure Value [1]: 0.81
Responses per peptide (Table 1): 2.29
Background % (Table 3): 2.79%
Response/Peptide (Table 3): 2.29
Structure Value [2]: 0.81
background response: 2.80+/−3.69%
Structure Value (compiled responses): 0.81

B5: BPN′ Y217L: B. amyloliquifaciens subtilisin BPN′ Y217L, Swissprot accession number P00782 (protein, UniProt P00782 108-382, looked up, variant Y217L)
Subtilisin BPN': AQSVPYGVSQIKAPALHSQGYTGSNVKVAVIDSGIDSSHPDLKVAGGASMVPSETNPFQDNNSHGTHVAGTVAALNNSIGVLGVAPSASLYAVKVLGADGSGQYSWIINGIEWAIANNMDVINMSLGGPSGSAALKAAVDKAVASGVVVVAAAGNEGTSGSSSTVGYPGKYPSVIAVGAVDSSNQRASFSSVGPELDVMAPGVSIQSTLPGNKYGALNGTSMASPHVAGAAALILSKHPNWTNTQVRSSLENTTTKLGDSFYYGKGLINVQAAAQ
Number of epitope regions (Table 1): 2
Structure Value [1]: 0.53
Responses per peptide (Table 1): 3.65
Background % (Table 3): 3.65%
Response/Peptide (Table 3): 3.61
Structure Value [2]: 0.65
Prominent Epitope (Table 4, number of prominent epitopes): 2
Structure Value (Table 4, parent, dataset of 113 individuals): 0.53
SIV (structure index value) (Table 21, parent, I-MUNE assay data): 0.53
background response: 3.62%
Structure Value (compiled responses): 0.53
